This passage reports Kd results from patent US20260125465A1 (BROAD INSTITUTE, published 2026).

First the molecules themselves.
B1: Ab_113415 VHH antibody, 6×His tagged, purified (VHH)
VHH: QVQLVESGGGLVQPGGSLRLSCAASGSMFSINAVAWYRQAPGEQREPVAAMTSGGSTIYADSVKGRFTISRDNAKNTVYLQMSSLKPEDTAVYYCNGGWSLAMDYWGQGTSVTVSH
notes: Produced by Genscript in a mammalian cell line and purified; The tag is written after the VHH only by convention
B2: Ab_119706 VHH antibody, 6×His tagged, purified (VHH)
VHH: QLQLVESGGGLVQPGGSLRLSCAASGFTLDYYAIGWFRQAPGKEREGVSYISSSGGSTNYADSVKGRFTISRDNAKNTVYLQMNSLKPEDTGVYSCAAAGGYGNSSRYWGQGTSVTVSH
notes: Produced by Genscript in a mammalian cell line and purified
B3: Ab_119704 VHH antibody, 6×His tagged, purified (VHH)
VHH: QLQLVESGGGLVQPGGSLRLSCAASGFTLDNYAIGWFRQAPGKEREGVSSISSSGGSTNYADSVKGRFTVSRDNAKHTVYLQMNSLKPEDTAVYYCAGVGDYGRRAMGQGTSVTVSH
notes: as for B2
B4: Ab_119702 VHH antibody, 6×His tagged, purified (VHH)
VHH: DVQLVESGGGLVQAGGSLRLSCAASGFPYFSCCMSWHRQAPGKDRELVSSISSDGSTHYADSVRGRFTISKGNARNTLYLQMNSLKPEDTAVYFCAASPRQLGPYYAMDYWGQGTSVTVSH
notes: as for B2
B5: Ab_119707 VHH antibody, 6×His tagged, purified (VHH)
VHH: EVQLVESGGGSVQAGETLRLSCTASGFTFDDSDMGWYRQAPGDECELVSTISSDGSTNYADSVKGRFTISQDNAKNTVYLQMTSLKPEDTAIYSCRTMASRIGCWGQGTLVTVSH
notes: as for B2

T1 sequence (Q13421 other isoform, or with tags, fused parts or gaps limits assumed): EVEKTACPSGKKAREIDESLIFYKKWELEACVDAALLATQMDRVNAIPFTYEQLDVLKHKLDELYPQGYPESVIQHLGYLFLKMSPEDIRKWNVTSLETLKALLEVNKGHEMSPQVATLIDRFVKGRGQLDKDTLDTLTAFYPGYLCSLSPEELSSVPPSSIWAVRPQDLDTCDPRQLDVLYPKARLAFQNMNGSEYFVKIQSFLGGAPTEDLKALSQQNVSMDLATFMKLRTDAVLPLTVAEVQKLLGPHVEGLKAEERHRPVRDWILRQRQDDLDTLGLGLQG

The experiment has as its target T1, soluble MSLN (Glu2-6-Gly580, Acro Bio Systems, MSN-H82E9-25 ug) (UniProt Q13421 296-580).
T1 construct: range 296-580; Detected with an anti-His secondary antibody in the CAR-T staining, so it carries a His tag; also called soluble mesothelin
The experiment in a line: biolayer interferometry (BLI) with soluble MSLN. The method, then: Experiments were undertaken to characterize the ability of the anti-MSLN VHH antibodies to bind MSLN. 6×His tagged (SEQ ID NO: 93) VHH antibodies were produced by Genscript in a mammalian cell line and purified. The purified VHH antibodies were tested using a flow cytometry-based assay to see how well they bound mesothelin expressed on cells (FIG. 9A). […] Also, biolayer interferometry (BLI) was used to accurately assess the binding affinity (Kd) of the anti-MSLN VHH antibodies (Table 5). BLI was conducted with soluble MSLN (Glu2-6-Gly580, Acro Bio Systems, MSN-H82E9-25 ug). […] After exposure to the media containing the soluble MSLN, an anti-His secondary antibody was used to detect CAR-T cells binding the MSLN. T cells expressing CARs containing the anti-MSLN VHH antibodies or SS1 as antigen binding domains bound the soluble MSLN.
For orientation: In BLI a coated tip is dipped into the sample, and binding shifts an interference pattern.
B1 had a Kd of 3.69 nM.
For the molecule B2, the Kd turned out to be 11.5 nM.
B3 yielded a Kd of 4.49 nM. Against the preceding molecule, the Kd is about 2.6-fold lower.
The molecule B4 had a Kd of 5.32 nM.
The value for B5 was 5.95 nM.

A word on the Kd: it is the free concentration of one partner at which half of the binding sites on the other are occupied at equilibrium, for simple one-to-one binding. Read a high Kd as a looser complex.
